The test addresses BchNB (NB-protein of DPOR) from Rhodobacter sphaeroides (Rhodobacter sphaeroides).

The substance “linked-BchL (two BchL subunits expressed as a single polypeptide, joined by a flexible linker) (enzyme)” displayed a kobs of Pchlide reduction measured as Chlide formation (with BchNB, Pchlide and ATP) of 0.0148 µM/min.

The values are drawn from publication PMC7948495, “The flexible N-terminus of BchL autoinhibits activity through interaction with its [4Fe-4S] cluster and released upon ATP binding” (The Journal of Biological Chemistry, 2020).
